{"source": "patent US12551573B2", "about": "“Compositions and methods for the targeting of PCSK9” (Scribe Therapeutics Inc., priority 2022, dated 2026)", "molecules": {"B1": {"name": "DOMAIN_13331 (protein, listed as Macaca fascicularis)", "chain": "FQGSISFKDVTVGFTQEEWQHLDPSQRALYRDVMLENYSNLVSVGYCVHKPEVISRLEQGEEPWRLEEEFPSQSFPVWTAD"}, "B2": {"name": "DOMAIN_10277 (protein, listed as Dipodomys ordii)", "chain": "SNKLVSFDDVAVEFSWEEWQELDISQRTLYRDVMLETYSMLVSLGHTGPKPQLIVKLEQDEESYMREASDKNFSDVQKMKH"}, "B3": {"name": "DOMAIN_11314 (protein, listed as Sus scrofa)", "chain": "VTFEDVALYFSRDEWRLLDEAQRRLYHDVMLQNFSLISSLGCCCGAEDAESPFQPSMFRDVSQARTLKAASLSQKNHPCEK"}, "B4": {"name": "DOMAIN_11307 (protein, listed as Mandrillus leucophaeus)", "chain": "MAFEDVAVYFSQEEWGLLDTAQRALYRRVMLDNFALVASLGLSTSRPRVVIQLERGEEPWVPSRTDTILSRNTYRRRNPGS"}, "B5": {"name": "DOMAIN_11359 (protein, listed as Sus scrofa)", "chain": "AQGQVTFEDVAVCFSQEEWGLLDETQRLLYRSVMLETFSLMASLGLTSSRTHDISQLERWGEPFLSASGAMRATRPTGCWH"}, "B6": {"name": "DOMAIN_11097 (protein, listed as Mandrillus leucophaeus)", "chain": "KEASVAFRDVAVDFTQEEWRLLSPAQRTLHREVMLETYNHLVSLEIPSSKPKLIAQLERGEEPWREERKCSLDLCPESKPE"}, "B7": {"name": "DOMAIN_11071 (protein, listed as Chrysochloris asiatica)", "chain": "SLEQVSFKDVCVDFTQEEWYLLDPAQKILYRDVILENYSNIVSVGHCGTKPEVIFKIEQGEEPWVLGEGFSSLQHPERNWK"}, "B8": {"name": "DOMAIN_10241 (protein, listed as Octodon degus)", "chain": "PTAPVAFSDLTICFSQEEWGWLSPTQKLLYEEVMLENYQNLVSVGLCTRKPHIITLLEKGKDPWIAEPLRKRGGPDPASRY"}, "B9": {"name": "DOMAIN_10974 (protein)", "chain": "AQMLVTFEEVAVYFTQGQGALLGPAQRALYRDVMQENYEMVTSLGFSLPKPELISRLERGEEPWVPDLQACEKRESLRGAR", "modifications": "Chelonia mydas"}, "B10": {"name": "DOMAIN_10612 (protein)", "chain": "ALESVTFRDVAVFFSRDEWLHLNPAQRALYREVMLDNYSALLSLGILFSKPKVILQLEQGEDPWMVENGVSQSACLGWESL", "modifications": "Vicugna pacos"}, "B11": {"name": "DOMAIN_9559 (protein, listed as Mus caroli)", "chain": "MGLVSFEDIAVYFNLEEWQDLDTAQRTLYRDVMLETYSSLVFLDPCIAKPKLIFNLERGFGPWSLAEASSRSLPGVHNVST"}, "B12": {"name": "DOMAIN_9858 (protein, listed as Mesocricetus auratus)", "chain": "MDAVTYDDVHINFTLEEWALLNPSQKSLYKDVMLDTYRNLTAIGYSWDDHNIEEICQSSRSHRRHLQRHAKINTGEKPYGS"}, "B13": {"name": "DOMAIN_9541 (protein, listed as Dipodomys ordii)", "chain": "SQGLVTFEDVAVYFSLEEWERLNVEQRALYQEVMQGNYGILVSLGYPIPKPDLIFRLEQGEEPWVPDSPHPEEGDIVTGVY"}, "B14": {"name": "DOMAIN_11049 (protein, listed as Neophocaena asiaeorientalis)", "chain": "PQGCAISEDVFVYFSREEWVLLDEDQRLLYRDVMLENFALLASLGIASSRSHLVTQLEQGEEPWMPAQVDMTPATEKEAQK"}, "B15": {"name": "DOMAIN_10359 (protein)", "chain": "AQGLMAFEDVAVYFSREEWGLLDAAQRALYRRVMLENFTLLASLGLSVSRPHVVIQLECGKEPWVLNGTDVTLARNAQRRP", "modifications": "Delphinapterus leucas"}, "B16": {"name": "DOMAIN_10573 (protein, listed as Cervus elaphus)", "chain": "SHTLVTFKDILVNFTREEWKLLDTAQQIMYKDVMLENYRNLVSLGHQLPKPDVILRLEKGEEPWLVEKEIHQETHPDLETP"}, "B17": {"name": "DOMAIN_9617 (protein, listed as Mesocricetus auratus)", "chain": "LQDSVTFKDVAVDFSQEEWERLNPAQRSLYRTVVLENYWNLVSVGACVSKSHLISLLEHGKAPWDMRGEVTESTSQDGESV"}, "B18": {"name": "DOMAIN_11321 (protein)", "chain": "GKELLSFEDVAMYFTREEWGHLNLGQKDLYRDVMLENYRNMVLLGFQFPKPEVICQLENWDEQWILDLPRAGNRKASGSAC", "modifications": "Nomascus leucogenys"}, "B19": {"name": "DOMAIN_10763 (protein, listed as Mustela putorius)", "chain": "PKVPVSFEDVSVYFTKTEWKLLDVQQRILYKTVMLENYHHLVSLGCLSTKPHLVSWLEQGEGPWTTDIWRTPATAKTQTEG"}, "B20": {"name": "DOMAIN_10807 (protein, listed as Erinaceus europaeus)", "chain": "SQASVSFKDVTVEFTQDEWRLMSSAQRTLYREVMLENYSHLISMGYCSTKPELIFALEQKDFRESILERESLSTIPPEDFQ"}, "B21": {"name": "DOMAIN_9706 (protein, listed as Octodon degus)", "chain": "SPVLVSFDDVFVSFTREEWQVLDNAQRALYGDVMLETYRSLVLLGQCITKPEVIFKLEQGVEPWTGGEPHNQSPPDVQEVD"}, "B22": {"name": "DOMAIN_10057 (protein, listed as Mus musculus)", "chain": "MDALTFDDVHVHFTREEWSLLDPSQKRLYKDVMLEIYKNLTAIGYKWKDHNVGEHSQNDRRYGRHERSPAGENHNEYTQCD"}, "B23": {"name": "DOMAIN_11202 (protein)", "chain": "RQAFLAFGDVTVDFTQKEWRLLSPAQRALYREVTLENYSHLVSLGILHSKPELIRRLEQGEAPWGEERRRRPGPCAGIYAE", "modifications": "Nomascus leucogenys"}, "B24": {"name": "DOMAIN_11312 (protein, listed as Sus scrofa)", "chain": "ALGSVTFRDVAVFFSQDEWLHLDSAQKTLYQEVMLENYSTLVSLGIPFSMPKVICQLQQGEDPCMVEGEALRDPCLDFKTW"}, "B25": {"name": "DOMAIN_9993 (protein, listed as Rattus norvegicus)", "chain": "DVVTYEDVHVNFTQEEWALLDPSQKRLYKVVMLETYKNLSAIGYIWEDHTIEQHFQSSRSHGRHKRHRTGEQPSELIQHGK"}, "B26": {"name": "DOMAIN_9716 (protein, listed as Mus caroli)", "chain": "PKVTVSFEDVSVYFTKTEWKLLDLKQRNLYKQVMLENYSHLVSVGFAFSKPNLVSQLERGEKPWIRDDRMESAARSRAGNR"}}, "data": [{"test_system": "HBEGF locus", "type": "cell-based, human", "settings": "high-throughput screen of dXR repression of the HBEGF gene; change in abundance of each domain in the library before and after diphtheria toxin selection", "values": [{"molecule": "B1", "Log2 (fold change)": 3.5154}, {"molecule": "B2", "Log2 (fold change)": 2.8257}]}, {"test_system": "HBEGF locus", "type": "cell-based, human", "settings": "repressor domain in dXR, repression of the HBEGF gene; abundance of domain in library after vs before diphtheria toxin selection", "values": [{"molecule": "B3", "Log2 (fold change)": 2.9575}, {"molecule": "B4", "Log2 (fold change)": 3.6383}, {"molecule": "B5", "Log2 (fold change)": 3.1036}, {"molecule": "B6", "Log2 (fold change)": 3.239}, {"molecule": "B7", "Log2 (fold change)": 3.1268}, {"molecule": "B8", "Log2 (fold change)": 3.5766}, {"molecule": "B9", "Log2 (fold change)": 2.6444}, {"molecule": "B10", "Log2 (fold change)": 2.4997}, {"molecule": "B11", "Log2 (fold change)": 3.327}, {"molecule": "B12", "Log2 (fold change)": 3.0047}, {"molecule": "B13", "Log2 (fold change)": 2.8442}, {"molecule": "B14", "Log2 (fold change)": 2.7072}, {"molecule": "B15", "Log2 (fold change)": 2.9199}, {"molecule": "B16", "Log2 (fold change)": 2.4077}, {"molecule": "B17", "Log2 (fold change)": 2.4034}, {"molecule": "B18", "Log2 (fold change)": 2.9718}, {"molecule": "B19", "Log2 (fold change)": 2.5924}, {"molecule": "B20", "Log2 (fold change)": 3.5237}, {"molecule": "B21", "Log2 (fold change)": 2.821}, {"molecule": "B22", "Log2 (fold change)": 2.2961}, {"molecule": "B23", "Log2 (fold change)": 3.5851}, {"molecule": "B24", "Log2 (fold change)": 3.8532}, {"molecule": "B25", "Log2 (fold change)": 2.7601}, {"molecule": "B26", "Log2 (fold change)": 2.9009}]}]}
